For this assay, the target named is T1, wt α2 (subunit α2 of E. coli class Ia ribonucleotide reductase) (E. coli, UniProt P00452 1-761).
T1 sequence (looked up): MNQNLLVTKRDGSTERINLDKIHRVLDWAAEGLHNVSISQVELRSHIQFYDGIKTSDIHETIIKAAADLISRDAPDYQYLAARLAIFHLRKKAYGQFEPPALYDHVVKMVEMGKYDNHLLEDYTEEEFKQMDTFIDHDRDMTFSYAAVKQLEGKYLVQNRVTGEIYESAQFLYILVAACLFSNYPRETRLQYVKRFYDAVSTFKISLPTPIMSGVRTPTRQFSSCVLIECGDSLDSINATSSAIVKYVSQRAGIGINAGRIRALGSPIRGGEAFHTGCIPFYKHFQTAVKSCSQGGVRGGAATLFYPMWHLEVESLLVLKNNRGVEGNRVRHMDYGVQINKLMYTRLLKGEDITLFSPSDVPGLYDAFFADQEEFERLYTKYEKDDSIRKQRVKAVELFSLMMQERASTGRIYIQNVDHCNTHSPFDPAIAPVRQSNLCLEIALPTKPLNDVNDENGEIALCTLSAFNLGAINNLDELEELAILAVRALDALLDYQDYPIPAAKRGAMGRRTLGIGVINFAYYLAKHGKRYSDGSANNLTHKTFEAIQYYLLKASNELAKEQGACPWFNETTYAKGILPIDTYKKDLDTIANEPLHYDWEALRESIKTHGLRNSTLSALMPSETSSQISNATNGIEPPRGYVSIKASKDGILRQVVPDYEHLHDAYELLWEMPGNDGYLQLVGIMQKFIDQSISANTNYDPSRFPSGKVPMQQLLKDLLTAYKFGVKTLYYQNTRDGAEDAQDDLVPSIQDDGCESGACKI
Put plainly: competitive inhibition assay.

Residue numbers refer to the chain shown, from its start. Numbers in names are those of the source.

B1: wt β2 (subunit β2 of E. coli class Ia ribonucleotide reductase) (enzyme, UniProt P69924 1-376, looked up)
chain: MAYTTFSQTKNDQLKEPMFFGQPVNVARYDQQKYDIFEKLIEKQLSFFWRPEEVDVSRDRIDYQALPEHEKHIFISNLKYQTLLDSIQGRSPNVALLPLISIPELETWVETWAFSETIHSRSYTHIIRNIVNDPSVVFDDIVTNEQIQKRAEGISSYYDELIEMTSYWHLLGEGTHTVNGKTVTVSLRELKKKLYLCLMSVNALEAIRFYVSFACSFAFAERELMEGNAKIIRLIARDEALHLTGTQHMLNLLRSGADDPEMAEIAEECKQECYDLFVQAAQQEKDWADYLFRDGSMIGLNKDILCQYVEYITNIRMQAVGLDLPFQTRSNPIPWINTWLVSDNVQVAPQEVEVSSYLVGQIDSEVDTDDLSNFQL
modifications: diferric-tyrosyl radical cofactor (Y122•), reconstitution yield of 1.1 Y•/β2
Regarding B1, the binding result is on record as “binds”.

B2: E52Q-photoβ2 (E52Q/C268S/C305S/S355C-β2 of E. coli class Ia ribonucleotide reductase, labelled with the [Re] photooxidant at C355) (enzyme, UniProt P69924 1-376, looked up)
chain: B1 chain with E53Q, C269S, C306S, S356C
modifications: [Re] photooxidant (tricarbonyl(1,10-phenanthroline)-4-thiomethylpyridine rhenium) covalently ligated to C355 (S355C); endogenous Y122• reduced
In general, Kd refers to the concentration at which binding is half-saturated. Higher therefore signals weaker binding. In the case of B2, binding was characterised by a dissociation constant (Kd) of 1060 nM. That is a single-digit micromolar value.

The record behind these values is publication PMC7904477 (Journal of the American Chemical Society, 2020).
